Reference: patent US20230212294A1 (MINGHUI PHARMACEUTICAL SHANGHAI, published 2023)
Changes are numbered by the printed parent chain.

B1: NL24-A68 (antibody, V domains shown)
VH: QVQLVQSGAEVKKPGSSVKVSCKASGGTFSSYAISWVRQAPGQGLEWMGGIIPILGIANYAQKFQGRVTITADKSTSTAYMELSSLRAEDTAVYYCARGGSGRYLPDYWGQGTLVTVSA
VL: EIVLTQSPATLSLSPGERATLSCRASQSVSSYLAWYQQKPGQAPRLLIYDASNRATGIPARFSGSGSGTDFTLTISSLEPEDFAVYYCQQRSNWPPSLTFGGGTKVEIK
notes: Screened from the human source library; full-length antibody; also called NL24A68HC; NL24A68LC
B2: IL-P6-C11 (antibody, V domains shown)
VH: EVQLQQSGPELVKPGASVRISCKTSGYTFTDYVIHWVKQNHGGSLEWIGGINRDSGGTTYNQKFQDKVTLTVDKSSNTAYMELRSLTSEDSAVYYCTKWKFPWYFDVWGAGTTVTVSS
VL: DIELTQSPAIMSASPGEKVTMTCSASSSISYMHWYQQKPGTSPKRWIYDTSKLASGVPARFSGSGSGTSYSLTISRVEAEDAATYYCQQWSSNPLTFGSGTKLEIK
notes: Unhumanized murine variable regions; full-length antibody
B3: NL24-A10 (antibody, V domains shown)
VH: B1 VH with Q1E, L55F, I57T, K74E, A88S, G100E, S101R, R103S, P106I
VL: B1 VL with S97M, L98Y, G102Q, V106L
notes: Screened from the human source library; full-length antibody; also called NL24A10HC; NL24A10LC
B4: NL24-A17 (antibody, V domains shown)
VH: QVQLVQSGAEVKKPGSSVKVSCKASGGTFSSYAISWVRQAPGQGLEWMGGIIPILGIANYAQKFQGRVTITADESTSTAYMELSSLRSEDTAVYYCARGDSGYDSNYWGQGTLVTVSA
VL: B1 VL with S31T, F83Y, S97L, L98F, G102P, E107D
notes: Screened from the human source library; full-length antibody; also called NL24A17HC; NL24A17LC
B5: IL-P6-B07 (antibody, V domains shown)
VH: B2 VH with D31E
VL: B2 VL with E3V, I29V, P39S, R76S, V77M, S99A, I105L
notes: as for B2
B6: IL-P5-C06-H2L3 (antibody, V domains shown)
VH: QVQLVQSGAEVKKPGASVKVSCKGSGYTFTDYAIHWGRQAPGQGLEWIGIINTYNGNSNYAQKFQGRATMTRDTSTSTAYMELSRLRSEDTAVYYCARNYGSSFNWYFDVWGQGTTVTVSS
VL: DIQLTQSPSSLSASVGDRVTITCRASSSISSNYLHWYQQKPGKAPKLLIYSTSNLASGVPSRFSGSGSGTDFTLTISSLQPEDFATYYCQQYSGYPLTFGQGTKLELK
notes: Humanized from IL-P5-C06; full-length antibody; also called ILP5C06huVH2 + ILP5C06huVL3
B7: IL-P5-C06-H3L4 (antibody, V domains shown)
VH: B6 VH with G24A, I48M, A68V
VL: B6 VL with L4M, A56Q
notes: Humanized from IL-P5-C06; full-length antibody; also called ILP5C06huVH3 + ILP5C06huVL4
B8: IL-P5-C06-H1L1 (antibody, V domains shown)
VH: B6 VH with G37A, R72V, T74K
VL: B6 VL with L11M, V19I, A44S, F72Y, L79V
notes: Humanized from IL-P5-C06; full-length antibody; also called ILP5C06huVH1 + ILP5C06huVL1
B9: IL-P5-C06-H2L2 (antibody, V domains shown)
VH: B6 VH
VL: B6 VL with V19I, L79V
notes: Humanized from IL-P5-C06; full-length antibody; also called ILP5C06huVH2 + ILP5C06huVL2

molecular target: T1, B7-H3 on CHOK cells overexpressing B7-H3; test: cell-based or functional assay
T1 sequence (Q5ZPR3 whole entry, species assumed, looked up): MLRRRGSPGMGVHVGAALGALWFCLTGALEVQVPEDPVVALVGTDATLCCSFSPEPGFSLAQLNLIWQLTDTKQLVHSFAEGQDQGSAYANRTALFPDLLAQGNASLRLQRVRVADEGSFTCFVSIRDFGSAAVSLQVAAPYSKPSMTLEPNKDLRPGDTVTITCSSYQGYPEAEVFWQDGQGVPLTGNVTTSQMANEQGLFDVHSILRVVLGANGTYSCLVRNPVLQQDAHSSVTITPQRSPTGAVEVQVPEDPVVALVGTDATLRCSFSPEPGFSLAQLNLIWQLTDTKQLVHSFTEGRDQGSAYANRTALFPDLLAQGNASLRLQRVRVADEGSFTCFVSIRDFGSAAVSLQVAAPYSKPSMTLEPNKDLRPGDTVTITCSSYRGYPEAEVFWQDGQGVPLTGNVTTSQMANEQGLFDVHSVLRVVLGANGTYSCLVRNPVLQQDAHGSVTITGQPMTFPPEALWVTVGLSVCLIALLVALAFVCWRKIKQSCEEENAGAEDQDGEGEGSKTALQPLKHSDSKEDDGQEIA

Binder	IC50 of CHO endocytosis experiment (toxin-labeled secondary antibody, cell viability)
B1	3.5 ng/mL
B2	3.5 ng/mL

Molecular target: T2, monkey B7-H3-his (monkey)
T2 chain: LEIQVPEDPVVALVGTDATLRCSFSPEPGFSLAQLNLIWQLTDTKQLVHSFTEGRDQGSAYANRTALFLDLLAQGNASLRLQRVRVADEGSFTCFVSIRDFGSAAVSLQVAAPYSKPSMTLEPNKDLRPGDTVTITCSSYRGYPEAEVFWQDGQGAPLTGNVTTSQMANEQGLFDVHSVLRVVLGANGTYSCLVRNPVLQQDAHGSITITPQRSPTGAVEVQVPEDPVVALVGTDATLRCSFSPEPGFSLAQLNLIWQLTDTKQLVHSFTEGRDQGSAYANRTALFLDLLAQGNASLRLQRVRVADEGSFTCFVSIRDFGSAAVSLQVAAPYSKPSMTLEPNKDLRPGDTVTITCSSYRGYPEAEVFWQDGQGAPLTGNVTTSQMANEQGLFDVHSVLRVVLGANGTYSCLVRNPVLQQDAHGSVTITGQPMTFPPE
Test: ELISA, antigen coated at 2 µg/mL
Experimental: (§1) Human B7-H3-his, mouse B7-H3-his and monkey B7-H3-his were diluted to 2 μg/mL with PBS, and added to the ELISA plate at 30 μL per well. The ELISA plate was then incubated in a refrigerator at 4° C. for 16-20 hours. The next day, the ELISA plate was washed once with a lotion (PBS containing 0.05% Tween 20) and then blocked with 5% skim milk powder for 1 hour. After blocking, the ELISA plate was washed once, then added with gradient-diluted anti-B7-H3 antibodies, and incubated at room temperature for 1 h. After incubated, the ELISA plate was washed three times, then added with goat anti-human HRP-labeled secondary antibody, and incubated at room temperature for 1 h. After incubated, the ELISA plate was washed three times, then developed for 5-15 minutes by adding TMB, and finally terminated with 2M sulfuric acid. The data were recorded on the microplate reader.

Binder	EC50
B1	0.131 µg/mL
B3	0.124 µg/mL
B4	0.0527 µg/mL
B2	0.0152 µg/mL
B5	0.183 µg/mL

molecular target: T3, mouse B7-H3-his (mouse, UniProt Q8VE98 29-244, limits assumed); test: ELISA, antigen coated at 2 µg/mL
T3 construct: His-tagged recombinant protein coated on the ELISA plate; not shown: his tag
T3 sequence (looked up): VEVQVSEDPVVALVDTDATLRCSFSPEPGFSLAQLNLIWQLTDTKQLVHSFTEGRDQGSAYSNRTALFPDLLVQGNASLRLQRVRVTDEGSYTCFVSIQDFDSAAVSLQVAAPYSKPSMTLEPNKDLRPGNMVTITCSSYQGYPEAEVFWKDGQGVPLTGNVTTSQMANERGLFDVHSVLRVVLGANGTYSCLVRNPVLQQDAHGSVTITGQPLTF
Experimental: as §1

Binder	EC50
B1	0.205 µg/mL
B3	0.219 µg/mL
B4	0.0643 µg/mL
B2	0.523 µg/mL
B5	1.29 µg/mL

molecular target: T4, B7-H3 endogenously expressed on human tumor cell lines (human, UniProt Q5ZPR3 29-534); test: flow cytometry on NCI-H322 cells
T4 construct: whole, on cells; The cell line is named in the assay or readout field of each row; also called NCI-H322 cells endogenously expressing B7-H3; B7-H3-positive human tumor cell lines NCI-H1975, BxPC-3, Calu-6
T4 sequence (looked up): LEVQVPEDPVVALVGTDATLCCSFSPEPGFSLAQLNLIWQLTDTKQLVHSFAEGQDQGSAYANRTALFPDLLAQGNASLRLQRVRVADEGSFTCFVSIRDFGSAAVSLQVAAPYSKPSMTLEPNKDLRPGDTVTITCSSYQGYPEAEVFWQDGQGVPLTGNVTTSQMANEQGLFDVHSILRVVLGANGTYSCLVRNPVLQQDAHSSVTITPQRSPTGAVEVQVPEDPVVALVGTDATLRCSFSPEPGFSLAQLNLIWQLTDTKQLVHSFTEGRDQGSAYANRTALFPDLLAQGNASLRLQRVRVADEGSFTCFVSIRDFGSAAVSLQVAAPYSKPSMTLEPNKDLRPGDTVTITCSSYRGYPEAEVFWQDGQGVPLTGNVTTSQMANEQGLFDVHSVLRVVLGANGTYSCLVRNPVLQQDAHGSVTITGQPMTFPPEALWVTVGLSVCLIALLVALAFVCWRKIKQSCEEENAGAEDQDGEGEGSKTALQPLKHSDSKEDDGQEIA
Experimental: (§2) CHOK cells overexpressing B7-H3 or NCI-H322 cells endogenously expressing B7-H3 were added to a round-bottom 96-well plate at 100,000 cells per well, centrifuged to remove the supernatant, and then added with a gradient-diluted anti-B7-H3 antibody and incubated at 4 degrees for 1 h. After incubation, the cells were washed twice with FACS buffer (PBS containing 2% FBS), then added with fluorescent-labeled goat anti-human secondary antibody (Abcam, ab98596) and incubated for 0.5 h. After incubation, the cells were washed twice with FACS buffer, then resuspended with FACS buffer and detected with flow cytometry (Beckman, cytoFlex).

Binder	EC50
B6	0.0618 µg/mL
B7	0.107 µg/mL
B8	0.0895 µg/mL
B9	0.0919 µg/mL
B1	0.0484 µg/mL
B3	0.0304 µg/mL
B4	0.0267 µg/mL
B2	0.21 µg/mL
B5	0.249 µg/mL

molecular target: T1, B7-H3 on CHOK cells overexpressing B7-H3; test: flow cytometry on CHOK cells overexpressing B7-H3
Experimental: as §2

Binder	EC50
B6	0.826 µg/mL
B7	1.13 µg/mL
B8	1.05 µg/mL
B9	1.12 µg/mL
B3	0.448 µg/mL
B4	0.665 µg/mL
B2	0.311 µg/mL
